Measured values from patent US20260092093A1 (TJ BIOPHARMA SHANGHAI, published 2026).

B1: IL-18 variant polypeptide M29 (ligand)
chain: YFPKLMSKLSVIRNLNDQVLFIDQGNRPLFEDMTDSDCRDNAPRTIFIISMYKFSDRRGMAVTISVKCEKISTLSCENKIISFKEMNPPDPIKDTKSDIIFFQRSVPGHDNKMQFESSSYEGYFLACEKERDLFKLILKKEDELGDRSIMFTVQNED
B2: IL-18 variant polypeptide WM10 (ligand)
chain: YFPKLKSKLSVIRNLNDQVLFIDQGNRPLFEDMTDSDCRDNAPRTIFIISMYKDSQPRGMAVTISVKCEKISTLSCENKIISFKEMNPPDSIKDTKSDIIFFQRSVPGHDNKMQFESSSYEGYFLACEKERDLFKLILKKEDELGDRSIMFTVQNED
B3: IL-18 variant polypeptide WM8 (ligand)
chain: YFPKLRSKLSVIRNLNDQVLFIDQGNRPLFEDMTDSDCRDNAPRTIFIISMYKDSQPRGMAVTISVKCEKISTLSCENKIISFKEMNPPDSIKDTKSDIIFFQRSVPGHDNKMQFESSSYEGYFLACEKERDLFKLILKKEDELGDRSIMFTVQNED
B4: IL-18 variant polypeptide MM5 (ligand)
chain: YFGKLGSKLSVIRNLNDQVLFIDQGNRPLFEDMTDSDCRDNAPRTIFIISMYKLSTERGMAVTISVKCEKISTLSCENKIISFKEMNPPDGIKDTKSDIIFFQSSVPGHDNKMQFESSSYEGYFLACEKERDLFKLILKKEDELGDRSIMFTVQNED
B5: IL-18 variant polypeptide M32 (ligand)
chain: YFPKLGSKLSVIRNLNDQVLFIDQGNRPLFEDMTDSDCRDNAPRTIFIISMYKSSSRRGMAVTISVKCEKISTLSCENKIISFKEMNPPDNIKDTKSDIIFFQRSVPGHDNKMQFESSSYEGYFLACEKERDLFKLILKKEDELGDRSIMFTVQNED
B6: IL-18 variant polypeptide WM6 (ligand)
chain: YFDKLKSKLSVIRNLNDQVLFIDQGNRPLFEDMTDSDCRDNAPRTIFIISMYKDSQPRGMAVTISVKCEKISTLSCENKIISFKEMNPPDSIKDTKSDIIFFQRSVPGHDNKMQFESSSYEGYFLACEKERDLFKLILKKEDELGDRSIMFTVQNED
B7: IL-18 variant polypeptide M12 (ligand)
chain: YFPKLKSKLSVIRNLNDQVLFIDQGNRPLFEDMTDSDCRDNAPRTIFIISMYKGSGARGMAVTISVKCEKISTLSCENKIISFKEMNPPDTIKDTKSDIIFFQRSVPGHDNKMQFESSSYEGYFLACEKERDLFKLILKKEDELGDRSIMFTVQNED
B8: IL-18 variant polypeptide M33 (ligand)
chain: YFEKLHSKLSVIRNLNDQVLFIDQGNRPLFEDMTDSDCRDNAPRTIFIISMYKRSTHRGMAVTISVKCEKISTLSCENKIISFKEMNPPDNIKDTKSDIIFFQRSVPGHDNKMQFESSSYEGYFLACEKERDLFKLILKKEDELGDRSIMFTVQNED
B9: IL-18 variant polypeptide M15 (ligand)
chain: YFPKLRSKLSVIRNLNDQVLFIDQGNRPLFEDMTDSDCRDNAPRTIFIISMYKSSYTRGMAVTISVKCEKISTLSCENKIISFKEMNPPDGIKDTKSDIIFFQRSVPGHDNKMQFESSSYEGYFLACEKERDLFKLILKKEDELGDRSIMFTVQNED
B10: IL-18 variant polypeptide M35 (ligand)
chain: YFPKLRSKLSVIRNLNDQVLFIDQGNRPLFEDMTDSDCRDNAPRTIFIISMYKGSGARGMAVTISVKCEKISTLSCENKIISFKEMNPPDGIKDTKSDIIFFQRSVPGHDNKMQFESSSYEGYFLACEKERDLFKLILKKEDELGDRSIMFTVQNED
B11: IL-18 variant polypeptide M11 (ligand)
chain: YFPKLRSKLSVIRNLNDQVLFIDQGNRPLFEDMTDSDCRDNAPRTIFIISMYKSSRNRGMAVTISVKCEKISTLSCENKIISFKEMNPPDGIKDTKSDIIFFQTSVPGHDNKMQFESSSYEGYFLACEKERDLFKLILKKEDELGDRSIMFTVQNED
B12: IL-18 variant polypeptide M36 (ligand)
chain: YFPKLSSKLSVIRNLNDQVLFIDQGNRPLFEDMTDSDCRDNAPRTIFIISMYKASDQRGMAVTISVKCEKISTLSCENKIISFKEMNPPDGIKDTKSDIIFFQRSVPGHDNKMQFESSSYEGYFLACEKERDLFKLILKKEDELGDRSIMFTVQNED
B13: IL-18 variant polypeptide M13 (ligand)
chain: YFPKLKSKLSVIRNLNDQVLFIDQGNRPLFEDMTDSDCRDNAPRTIFIISMYKQSIWRGMAVTISVKCEKISTLSCENKIISFKEMNPPDNIKDTKSDIIFFQRSVPGHDNKMQFESSSYEGYFLACEKERDLFKLILKKEDELGDRSIMFTVQNED

Tests used:
Experiment in all cases: cell-based or functional assay
[1] = target: T1, hIL-18 receptor (hIL-18Rα and hIL-18Rβ) (human, UniProt Q13478 19-541; O95256 20-599)
T1 sequence (looked up) 1: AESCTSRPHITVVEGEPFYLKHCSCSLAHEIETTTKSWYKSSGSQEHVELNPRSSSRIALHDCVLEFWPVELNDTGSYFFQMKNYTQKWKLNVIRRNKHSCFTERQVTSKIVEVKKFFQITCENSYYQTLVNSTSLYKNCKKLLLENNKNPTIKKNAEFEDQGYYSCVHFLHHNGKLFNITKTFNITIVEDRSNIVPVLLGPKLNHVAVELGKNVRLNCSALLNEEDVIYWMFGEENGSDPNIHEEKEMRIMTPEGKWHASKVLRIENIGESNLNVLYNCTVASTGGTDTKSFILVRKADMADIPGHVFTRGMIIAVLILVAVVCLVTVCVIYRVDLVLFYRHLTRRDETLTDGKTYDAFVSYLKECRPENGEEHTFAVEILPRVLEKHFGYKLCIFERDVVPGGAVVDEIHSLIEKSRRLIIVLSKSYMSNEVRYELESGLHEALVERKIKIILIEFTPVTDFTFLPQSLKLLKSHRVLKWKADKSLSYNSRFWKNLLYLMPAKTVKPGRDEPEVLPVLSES
T1 sequence (looked up) 2: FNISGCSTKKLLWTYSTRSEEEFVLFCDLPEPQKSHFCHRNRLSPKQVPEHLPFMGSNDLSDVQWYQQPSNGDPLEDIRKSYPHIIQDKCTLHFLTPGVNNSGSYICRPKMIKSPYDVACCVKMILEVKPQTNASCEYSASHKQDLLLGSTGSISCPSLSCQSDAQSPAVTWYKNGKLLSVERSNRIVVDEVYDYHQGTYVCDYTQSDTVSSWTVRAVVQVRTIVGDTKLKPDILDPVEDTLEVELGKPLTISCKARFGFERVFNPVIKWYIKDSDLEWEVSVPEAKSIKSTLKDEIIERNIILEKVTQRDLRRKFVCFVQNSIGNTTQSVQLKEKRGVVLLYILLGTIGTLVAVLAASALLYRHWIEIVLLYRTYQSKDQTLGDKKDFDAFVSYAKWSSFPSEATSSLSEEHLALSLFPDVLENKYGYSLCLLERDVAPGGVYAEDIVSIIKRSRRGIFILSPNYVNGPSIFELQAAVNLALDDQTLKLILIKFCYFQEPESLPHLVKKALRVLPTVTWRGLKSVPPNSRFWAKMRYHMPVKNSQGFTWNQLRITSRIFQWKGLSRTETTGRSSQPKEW

hIL-18BP-hFc [2] = target: T2, hIL-18BP-hFc (human, UniProt O95998 31-194, limits assumed)
T2 sequence (looked up): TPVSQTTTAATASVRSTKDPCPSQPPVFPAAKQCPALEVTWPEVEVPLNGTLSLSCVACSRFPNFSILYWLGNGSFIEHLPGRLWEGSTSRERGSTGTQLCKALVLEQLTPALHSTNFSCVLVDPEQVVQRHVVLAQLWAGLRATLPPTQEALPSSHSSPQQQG

[3] = target: T1, hIL-18 receptor (hIL-18Rα and hIL-18Rβ); remark: listed apart in the source
hIL-18BP-hFc [4] = target: T2, hIL-18BP-hFc; remark: listed apart in the source

Row | Binder | EC50 (nM), hIL-18 reporter assay [1] | EC50 (nM) in the Presence of 1 µg/mL hIL-18BP-hFc, hIL-18 reporter assay (hIL-18BP-hFc [2]) | EC50 Fold Change (+BP/-BP), hIL-18 reporter assay (hIL-18BP-hFc [2]) | EC50 (nM), PBMC assay (hIFNγ release) [3] | EC50 (nM) in the Presence of 1 µg/mL hIL-18BP-hFc, PBMC assay (hIFNγ release) (hIL-18BP-hFc [4]) | EC50 Fold Change (+BP/-BP), PBMC assay (hIFNγ release) (hIL-18BP-hFc [4])
1 | B1 | 4.8 nM | 1.9 nM | 0.4 fold | 0.14 nM | 0.096 nM | 0.69 fold
2 | B2 | 14.7 nM | 15.6 nM | 1.06 fold | 0.53 nM | 0.44 nM | 0.83 fold
3 | B3 | 7 nM | 5.2 nM | 0.74 fold | 0.68 nM | 1.02 nM | 1.5 fold
4 | B4 | 0.028 nM | 0.08 nM | 2.86 fold | 0.035 nM | 0.045 nM | 1.29 fold
5 | B5 | 5.9 nM | 4.1 nM | 0.69 fold | 0.13 nM | 0.1 nM | 0.77 fold
6 | B6 | 0.06 nM | 0.74 nM | 12.3 fold |  | ~0.04 nM | 
7 | B7 | 0.04 nM | 0.03 nM | 0.75 fold | 0.043 nM | 0.045 nM | 1.05 fold
8 | B8 | 18.4 nM | 10.7 nM | 0.58 fold | 0.51 nM | 0.35 nM | 0.69 fold
9 | B9 | 0.13 nM | 0.12 nM | 0.92 fold | 0.049 nM | 0.036 nM | 0.73 fold
10 | B10 | 0.62 nM | 0.51 nM | 0.82 fold | 0.085 nM | 0.14 nM | 1.65 fold
11 | B11 | 0.13 nM | 0.21 nM | 1.62 fold | 0.044 nM | 0.068 nM | 1.55 fold
12 | B12 | 3.9 nM | 2.5 nM | 0.64 fold | 1.1 nM | 0.8 nM | 0.73 fold
13 | B13 | 0.035 nM | 0.026 nM | 0.74 fold | 0.02 nM | 0.025 nM | 1.25 fold
